Measured values: patent US20230002460A1 (YUHAN, published 2023)
Read-outs that look alike come from different tables or passages of the source.

Experiments:
Assay in all cases: cell-based or functional assay
[1] = target: T1, GDF15 receptors GFRAL and RET, overexpressed together on HEK293 cells (UniProt Q6UXV0 19-394; P07949 29-1114, limits assumed)
[2] = target: T1, GDF15 receptors GFRAL and RET, …; remark: listed apart in the source
[3] = target: T1, GDF15 receptors GFRAL and RET, …; remark: listed apart in the source
[4] = target: T1, GDF15 receptors GFRAL and RET, …; remark: listed apart in the source

T1 sequence (Q6UXV0 19-394 limits assumed, chain 1 of 2): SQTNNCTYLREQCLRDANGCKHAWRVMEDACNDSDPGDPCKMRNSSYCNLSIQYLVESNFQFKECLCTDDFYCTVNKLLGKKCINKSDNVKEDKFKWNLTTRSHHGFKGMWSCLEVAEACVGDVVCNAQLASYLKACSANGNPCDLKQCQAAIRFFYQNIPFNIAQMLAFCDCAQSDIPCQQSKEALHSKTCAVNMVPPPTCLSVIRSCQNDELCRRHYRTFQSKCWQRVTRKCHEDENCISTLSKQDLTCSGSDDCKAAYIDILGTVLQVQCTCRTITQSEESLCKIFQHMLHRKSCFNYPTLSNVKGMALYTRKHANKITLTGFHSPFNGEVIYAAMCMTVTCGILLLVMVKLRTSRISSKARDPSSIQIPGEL
T1 sequence (P07949 29-1114 limits assumed, chain 2 of 2): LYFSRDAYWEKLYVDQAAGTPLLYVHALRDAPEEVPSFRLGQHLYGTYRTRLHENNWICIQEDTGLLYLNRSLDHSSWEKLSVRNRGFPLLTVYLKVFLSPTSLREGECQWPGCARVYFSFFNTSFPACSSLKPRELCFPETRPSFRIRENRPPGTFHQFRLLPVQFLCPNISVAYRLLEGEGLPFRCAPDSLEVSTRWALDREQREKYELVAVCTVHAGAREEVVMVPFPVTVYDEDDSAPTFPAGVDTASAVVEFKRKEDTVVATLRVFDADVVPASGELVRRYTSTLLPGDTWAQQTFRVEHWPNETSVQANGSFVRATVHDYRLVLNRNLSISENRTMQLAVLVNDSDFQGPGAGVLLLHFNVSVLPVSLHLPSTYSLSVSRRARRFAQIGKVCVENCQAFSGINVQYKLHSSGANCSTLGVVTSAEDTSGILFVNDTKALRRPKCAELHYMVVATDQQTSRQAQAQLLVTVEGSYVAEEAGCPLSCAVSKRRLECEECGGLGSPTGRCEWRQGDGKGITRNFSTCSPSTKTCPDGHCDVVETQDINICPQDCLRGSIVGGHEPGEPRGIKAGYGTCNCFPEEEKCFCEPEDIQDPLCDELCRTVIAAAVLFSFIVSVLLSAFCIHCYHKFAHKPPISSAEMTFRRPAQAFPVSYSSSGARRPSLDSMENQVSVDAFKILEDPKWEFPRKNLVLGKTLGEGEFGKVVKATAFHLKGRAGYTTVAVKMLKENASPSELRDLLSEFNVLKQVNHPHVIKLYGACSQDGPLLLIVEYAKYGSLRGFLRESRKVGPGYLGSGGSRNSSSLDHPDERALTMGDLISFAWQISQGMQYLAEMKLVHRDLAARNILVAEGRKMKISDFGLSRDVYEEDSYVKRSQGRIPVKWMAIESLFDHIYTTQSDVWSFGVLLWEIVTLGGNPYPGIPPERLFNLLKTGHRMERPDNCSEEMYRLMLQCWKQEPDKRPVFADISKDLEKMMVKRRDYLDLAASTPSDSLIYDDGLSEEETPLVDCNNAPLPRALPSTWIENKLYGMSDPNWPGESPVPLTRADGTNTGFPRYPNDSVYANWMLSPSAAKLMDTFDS

| Binder | EC50 [1] | Emax (%) [1] | EC50 [3] | Emax (%) [relative to FWT 100%] [3] | EC50 [4] | Emax (%) [relative to FWT 100%] [4] | also measured |
| --- | --- | --- | --- | --- | --- | --- | --- |
| long-acting GDF15 fusion protein (dimer) FM2 + Fc_hole (ΔN3, G4N, D5S, H6T) (Fc fusion) chain 1: APALAGGPSVFLFPPKPKDTLMISRTPEVTCVVVDVSHEDPEVKFNWYVDGVEVHNAKTKPREEQYNSTYRVVSVLTVLHQDWLNGKEYKCKVSNKALPAPIEKTISKAKGQPREPQVYTLPPSREEMTKNQVSLWCLVKGFYPSDIAVEWESNGQPENNYKTTPPVLDSDGSFFLYSKLTVDKSRWQQGNVFSCSVMHEALHNHYTQKSLSLSPGKGGGGSGGGGSGGGGSGGGGSGGGGSNSTCPLGPGRCCRLHTVRASLEDLGWADWVLSPREVQVTMCIGACPSQFRAANMHAQIKTSLHRLKPDTVPAPCCVPASYNPMVLIQKTDTGVSLQTYDDLLAKDCHCI chain 2: not shown | 3.9 nM | 100% |  |  |  |  |  |
| long-acting GDF15 fusion protein (dimer) FM11 + Fc_hole (ΔN3, G4N, D5S, H6T, S64R) (Fc fusion) chain 1: APALAGGPSVFLFPPKPKDTLMISRTPEVTCVVVDVSHEDPEVKFNWYVDGVEVHNAKTKPREEQYNSTYRVVSVLTVLHQDWLNGKEYKCKVSNKALPAPIEKTISKAKGQPREPQVYTLPPSREEMTKNQVSLWCLVKGFYPSDIAVEWESNGQPENNYKTTPPVLDSDGSFFLYSKLTVDKSRWQQGNVFSCSVMHEALHNHYTQKSLSLSPGKGGGGSGGGGSGGGGSGGGGSGGGGSNSTCPLGPGRCCRLHTVRASLEDLGWADWVLSPREVQVTMCIGACPSQFRAANMHAQIKTRLHRLKPDTVPAPCCVPASYNPMVLIQKTDTGVSLQTYDDLLAKDCHCI chain 2: not shown | 2.9 nM | 270% |  |  |  |  |  |
| long-acting GDF15 fusion protein (dimer) FM10 + Fc_hole (ΔN3, WS insertion, G4N, D5S, H6T, S64R) (Fc fusion) chain 1: APALAGGPSVFLFPPKPKDTLMISRTPEVTCVVVDVSHEDPEVKFNWYVDGVEVHNAKTKPREEQYNSTYRVVSVLTVLHQDWLNGKEYKCKVSNKALPAPIEKTISKAKGQPREPQVYTLPPSREEMTKNQVSLWCLVKGFYPSDIAVEWESNGQPENNYKTTPPVLDSDGSFFLYSKLTVDKSRWQQGNVFSCSVMHEALHNHYTQKSLSLSPGKGGGGSGGGGSGGGGSGGGGSGGGGSWSNSTCPLGPGRCCRLHTVRASLEDLGWADWVLSPREVQVTMCIGACPSQFRAANMHAQIKTRLHRLKPDTVPAPCCVPASYNPMVLIQKTDTGVSLQTYDDLLAKDCHCI chain 2: not shown | 2.3 nM | 267% |  |  |  |  |  |
| long-acting GDF15 fusion protein (dimer) FWT + Fc_hole (ΔN2) (Fc fusion) chain 1: APALAGGPSVFLFPPKPKDTLMISRTPEVTCVVVDVSHEDPEVKFNWYVDGVEVHNAKTKPREEQYNSTYRVVSVLTVLHQDWLNGKEYKCKVSNKALPAPIEKTISKAKGQPREPQVYTLPPSREEMTKNQVSLWCLVKGFYPSDIAVEWESNGQPENNYKTTPPVLDSDGSFFLYSKLTVDKSRWQQGNVFSCSVMHEALHNHYTQKSLSLSPGKGGGGSGGGGSGGGGSGGGGSGGGGSNGDHCPLGPGRCCRLHTVRASLEDLGWADWVLSPREVQVTMCIGACPSQFRAANMHAQIKTSLHRLKPDTVPAPCCVPASYNPMVLIQKTDTGVSLQTYDDLLAKDCHCI chain 2: not shown |  |  | 7.3 nM | 100% | 5.4 nM | 100% | EC50 [2]: 7 nM; Emax (%) [relative to FWT 100%] [2]: 100% |
| long-acting GDF15 fusion protein (dimer) FM4-1 + Fc_hole (ΔN2, N56S, D103S) (Fc fusion) chain 1: APALAGGPSVFLFPPKPKDTLMISRTPEVTCVVVDVSHEDPEVKFNWYVDGVEVHNAKTKPREEQYNSTYRVVSVLTVLHQDWLNGKEYKCKVSNKALPAPIEKTISKAKGQPREPQVYTLPPSREEMTKNQVSLWCLVKGFYPSDIAVEWESNGQPENNYKTTPPVLDSDGSFFLYSKLTVDKSRWQQGNVFSCSVMHEALHNHYTQKSLSLSPGKGGGGSGGGGSGGGGSGGGGSGGGGSNGDHCPLGPGRCCRLHTVRASLEDLGWADWVLSPREVQVTMCIGACPSQFRAASMHAQIKTSLHRLKPDTVPAPCCVPASYNPMVLIQKTDTGVSLQTYDSLLAKDCHCI chain 2: not shown |  |  |  |  | 8.9 nM | 86.4% |  |
| long-acting GDF15 fusion protein (dimer) FM12 + Fc_hole (ΔN2, R21N, S64R) (Fc fusion) chain 1: APALAGGPSVFLFPPKPKDTLMISRTPEVTCVVVDVSHEDPEVKFNWYVDGVEVHNAKTKPREEQYNSTYRVVSVLTVLHQDWLNGKEYKCKVSNKALPAPIEKTISKAKGQPREPQVYTLPPSREEMTKNQVSLWCLVKGFYPSDIAVEWESNGQPENNYKTTPPVLDSDGSFFLYSKLTVDKSRWQQGNVFSCSVMHEALHNHYTQKSLSLSPGKGGGGSGGGGSGGGGSGGGGSGGGGSNGDHCPLGPGRCCRLHTVNASLEDLGWADWVLSPREVQVTMCIGACPSQFRAANMHAQIKTRLHRLKPDTVPAPCCVPASYNPMVLIQKTDTGVSLQTYDDLLAKDCHCI chain 2: not shown | 5.9 nM | 221% |  |  |  |  |  |
| long-acting GDF15 fusion protein (dimer) FM3 + Fc_hole (ΔN2, R21N) (Fc fusion) chain 1: APALAGGPSVFLFPPKPKDTLMISRTPEVTCVVVDVSHEDPEVKFNWYVDGVEVHNAKTKPREEQYNSTYRVVSVLTVLHQDWLNGKEYKCKVSNKALPAPIEKTISKAKGQPREPQVYTLPPSREEMTKNQVSLWCLVKGFYPSDIAVEWESNGQPENNYKTTPPVLDSDGSFFLYSKLTVDKSRWQQGNVFSCSVMHEALHNHYTQKSLSLSPGKGGGGSGGGGSGGGGSGGGGSGGGGSNGDHCPLGPGRCCRLHTVNASLEDLGWADWVLSPREVQVTMCIGACPSQFRAANMHAQIKTSLHRLKPDTVPAPCCVPASYNPMVLIQKTDTGVSLQTYDDLLAKDCHCI chain 2: not shown | 3.3 nM | 100% |  |  |  |  |  |
| long-acting GDF15 fusion protein (dimer) FM9 + Fc_hole (ΔN2, S64R) (Fc fusion) chain 1: APALAGGPSVFLFPPKPKDTLMISRTPEVTCVVVDVSHEDPEVKFNWYVDGVEVHNAKTKPREEQYNSTYRVVSVLTVLHQDWLNGKEYKCKVSNKALPAPIEKTISKAKGQPREPQVYTLPPSREEMTKNQVSLWCLVKGFYPSDIAVEWESNGQPENNYKTTPPVLDSDGSFFLYSKLTVDKSRWQQGNVFSCSVMHEALHNHYTQKSLSLSPGKGGGGSGGGGSGGGGSGGGGSGGGGSNGDHCPLGPGRCCRLHTVRASLEDLGWADWVLSPREVQVTMCIGACPSQFRAANMHAQIKTRLHRLKPDTVPAPCCVPASYNPMVLIQKTDTGVSLQTYDDLLAKDCHCI chain 2: not shown |  |  | 5 nM | 123% |  |  |  |
| long-acting GDF15 fusion protein (dimer) FM4-2 + Fc_hole (ΔN2, D103L) (Fc fusion) chain 1: APALAGGPSVFLFPPKPKDTLMISRTPEVTCVVVDVSHEDPEVKFNWYVDGVEVHNAKTKPREEQYNSTYRVVSVLTVLHQDWLNGKEYKCKVSNKALPAPIEKTISKAKGQPREPQVYTLPPSREEMTKNQVSLWCLVKGFYPSDIAVEWESNGQPENNYKTTPPVLDSDGSFFLYSKLTVDKSRWQQGNVFSCSVMHEALHNHYTQKSLSLSPGKGGGGSGGGGSGGGGSGGGGSGGGGSNGDHCPLGPGRCCRLHTVRASLEDLGWADWVLSPREVQVTMCIGACPSQFRAANMHAQIKTSLHRLKPDTVPAPCCVPASYNPMVLIQKTDTGVSLQTYDLLLAKDCHCI chain 2: not shown |  |  |  |  | 10.6 nM | 110% |  |
| long-acting GDF15 fusion protein (dimer) FM15 + Fc_hole (ΔN2, S64E) (Fc fusion) chain 1: APALAGGPSVFLFPPKPKDTLMISRTPEVTCVVVDVSHEDPEVKFNWYVDGVEVHNAKTKPREEQYNSTYRVVSVLTVLHQDWLNGKEYKCKVSNKALPAPIEKTISKAKGQPREPQVYTLPPSREEMTKNQVSLWCLVKGFYPSDIAVEWESNGQPENNYKTTPPVLDSDGSFFLYSKLTVDKSRWQQGNVFSCSVMHEALHNHYTQKSLSLSPGKGGGGSGGGGSGGGGSGGGGSGGGGSNGDHCPLGPGRCCRLHTVRASLEDLGWADWVLSPREVQVTMCIGACPSQFRAANMHAQIKTELHRLKPDTVPAPCCVPASYNPMVLIQKTDTGVSLQTYDDLLAKDCHCI chain 2: not shown |  |  | 33.6 nM | 41% |  |  |  |
| long-acting GDF15 fusion protein (dimer) FM13 + Fc_hole (ΔN2, S64N) (Fc fusion) chain 1: APALAGGPSVFLFPPKPKDTLMISRTPEVTCVVVDVSHEDPEVKFNWYVDGVEVHNAKTKPREEQYNSTYRVVSVLTVLHQDWLNGKEYKCKVSNKALPAPIEKTISKAKGQPREPQVYTLPPSREEMTKNQVSLWCLVKGFYPSDIAVEWESNGQPENNYKTTPPVLDSDGSFFLYSKLTVDKSRWQQGNVFSCSVMHEALHNHYTQKSLSLSPGKGGGGSGGGGSGGGGSGGGGSGGGGSNGDHCPLGPGRCCRLHTVRASLEDLGWADWVLSPREVQVTMCIGACPSQFRAANMHAQIKTNLHRLKPDTVPAPCCVPASYNPMVLIQKTDTGVSLQTYDDLLAKDCHCI chain 2: not shown |  |  | 9.6 nM | 93.3% |  |  |  |
| long-acting GDF15 fusion protein (dimer) FM14 + Fc_hole (ΔN2, S64D) (Fc fusion) chain 1: APALAGGPSVFLFPPKPKDTLMISRTPEVTCVVVDVSHEDPEVKFNWYVDGVEVHNAKTKPREEQYNSTYRVVSVLTVLHQDWLNGKEYKCKVSNKALPAPIEKTISKAKGQPREPQVYTLPPSREEMTKNQVSLWCLVKGFYPSDIAVEWESNGQPENNYKTTPPVLDSDGSFFLYSKLTVDKSRWQQGNVFSCSVMHEALHNHYTQKSLSLSPGKGGGGSGGGGSGGGGSGGGGSGGGGSNGDHCPLGPGRCCRLHTVRASLEDLGWADWVLSPREVQVTMCIGACPSQFRAANMHAQIKTDLHRLKPDTVPAPCCVPASYNPMVLIQKTDTGVSLQTYDDLLAKDCHCI chain 2: not shown |  |  | 7.9 nM | 48.2% |  |  |  |
| long-acting GDF15 fusion protein (dimer) FM4-3 + Fc_hole (ΔN2, N56L) (Fc fusion) chain 1: APALAGGPSVFLFPPKPKDTLMISRTPEVTCVVVDVSHEDPEVKFNWYVDGVEVHNAKTKPREEQYNSTYRVVSVLTVLHQDWLNGKEYKCKVSNKALPAPIEKTISKAKGQPREPQVYTLPPSREEMTKNQVSLWCLVKGFYPSDIAVEWESNGQPENNYKTTPPVLDSDGSFFLYSKLTVDKSRWQQGNVFSCSVMHEALHNHYTQKSLSLSPGKGGGGSGGGGSGGGGSGGGGSGGGGSNGDHCPLGPGRCCRLHTVRASLEDLGWADWVLSPREVQVTMCIGACPSQFRAALMHAQIKTSLHRLKPDTVPAPCCVPASYNPMVLIQKTDTGVSLQTYDDLLAKDCHCI chain 2: not shown |  |  |  |  | 140 nM | 34.3% |  |
| long-acting GDF15 fusion protein (dimer) FM4 + Fc_hole (ΔN2, N56C, D103C) (Fc fusion) chain 1: APALAGGPSVFLFPPKPKDTLMISRTPEVTCVVVDVSHEDPEVKFNWYVDGVEVHNAKTKPREEQYNSTYRVVSVLTVLHQDWLNGKEYKCKVSNKALPAPIEKTISKAKGQPREPQVYTLPPSREEMTKNQVSLWCLVKGFYPSDIAVEWESNGQPENNYKTTPPVLDSDGSFFLYSKLTVDKSRWQQGNVFSCSVMHEALHNHYTQKSLSLSPGKGGGGSGGGGSGGGGSGGGGSGGGGSNGDHCPLGPGRCCRLHTVRASLEDLGWADWVLSPREVQVTMCIGACPSQFRAACMHAQIKTSLHRLKPDTVPAPCCVPASYNPMVLIQKTDTGVSLQTYDCLLAKDCHCI chain 2: not shown |  |  |  |  | 3.6 nM | 140% | EC50 [2]: 3.4 nM; Emax (%) [relative to FWT 100%] [2]: 133% |
